According to patent US20220144916A1 (University of Texas, published 2022):

T1: HCMV viral Fcγ receptor gp34 (residues 24-182), soluble, strep and FLAG tags (human cytomegalovirus AD169, UniProt P16809 24-182)
T1 construct: range 24-182
T1 sequence: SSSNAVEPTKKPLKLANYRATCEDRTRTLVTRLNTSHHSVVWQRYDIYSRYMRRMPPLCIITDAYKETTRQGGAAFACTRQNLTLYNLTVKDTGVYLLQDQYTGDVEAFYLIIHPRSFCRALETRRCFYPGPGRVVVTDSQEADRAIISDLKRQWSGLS


Key:
[1] = biological target: T2, human FcγRIIIA, FLAG-tagged (human, UniProt P08637 17-208); experiment: flow cytometry, yeast display of human IgG1 Fc, FcgR3A labeled with PE
T2 construct: also called FcgRIIIa; FcγIIIA
T2 sequence (P08637 17-208 limits assumed): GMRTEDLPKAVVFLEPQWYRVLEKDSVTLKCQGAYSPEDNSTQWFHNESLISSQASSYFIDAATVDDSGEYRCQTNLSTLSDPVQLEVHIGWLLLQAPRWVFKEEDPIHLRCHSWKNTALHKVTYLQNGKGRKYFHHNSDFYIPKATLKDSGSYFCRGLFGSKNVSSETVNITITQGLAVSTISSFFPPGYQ

[2] = biological target: T1, HCMV viral Fcγ receptor gp34 (residues …); experiment: flow cytometry, yeast display of human IgG1 Fc, Gp34 plus anti-FLAG PE
human FcRn, FLAG-tagged = human FcRn, FLAG-tagged (human, UniProt P55899 24-297; P61769 21-119); experiment: flow cytometry, yeast display of human IgG1 Fc, FcRn at low pH, PE detection
Chain of human FcRn, FLAG-tagged (P55899 24-297 limits assumed, chain 1 of 2): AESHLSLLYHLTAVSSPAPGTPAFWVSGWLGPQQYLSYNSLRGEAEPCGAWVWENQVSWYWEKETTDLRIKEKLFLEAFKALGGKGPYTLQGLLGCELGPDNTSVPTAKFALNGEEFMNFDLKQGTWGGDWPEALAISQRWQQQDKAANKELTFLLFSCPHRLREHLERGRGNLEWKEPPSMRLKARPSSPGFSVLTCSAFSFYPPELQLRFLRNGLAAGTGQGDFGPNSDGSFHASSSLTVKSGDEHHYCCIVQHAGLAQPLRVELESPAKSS
Chain of human FcRn, FLAG-tagged (P61769 21-119 limits assumed, chain 2 of 2): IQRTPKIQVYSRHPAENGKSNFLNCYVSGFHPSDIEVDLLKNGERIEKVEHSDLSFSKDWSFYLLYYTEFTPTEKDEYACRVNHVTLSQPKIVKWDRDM

Binder | number printed in the receptor-PE gate (share of yeast cells; unit not given) [1] | binding result [2] | number printed in the receptor-PE gate (share of yeast cells; unit not given) (human FcRn, FLAG-tagged)
3S-12 (other, member of group m65; also called gp34 escape variant 3S-12 of human IgG1 Fc, S337F, E345K, T350I) human IgG1 Fc displayed on yeast as an Aga-2 fusion protein: CDKTHTCPPCPAPELLGGPSVFLFPPKPKDTLMISRTPEVTCVVVDVSHEDPEVKFNWYVDGVEVHNAKTKPREEQYNSTYRVVSVLTVLHQDWLNGKEYKCKVSNKALPAPIEKTIFKAKGQPRKPQVYILPPSRDELTKNQVSLTCLVKGFYPSDIAVEWESNGQPENNYKTTPPVLDSDGSFFLYSKLTVDKSRWQQGNVFSCSVMHEALHNHYTQKSLSLSPGK | 39.9 | no binding | –
4-7 (other, also called gp34 escape variant 4-7 of human IgG1 Fc, H268L, E294K, Q311L, K334E) human IgG1 Fc displayed on yeast as an Aga-2 fusion protein: CDKTHTCPPCPAPELLGGPSVFLFPPKPKDTLMISRTPEVTCVVVDVSLEDPEVKFNWYVDGVEVHNAKTKPREKQYNSTYRVVSVLTVLHLDWLNGKEYKCKVSNKALPAPIEETISKAKGQPREPQVYTLPPSRDELTKNQVSLTCLVKGFYPSDIAVEWESNGQPENNYKTTPPVLDSDGSFFLYSKLTVDKSRWQQGNVFSCSVMHEALHNHYTQKSLSLSPGK | 54.2 | no binding | 34.3
3S-13 (other, member of group m65; also called gp34 escape variant 3S-13 of human IgG1 Fc, K334E, K338I) human IgG1 Fc displayed on yeast as an Aga-2 fusion protein: CDKTHTCPPCPAPELLGGPSVFLFPPKPKDTLMISRTPEVTCVVVDVSHEDPEVKFNWYVDGVEVHNAKTKPREEQYNSTYRVVSVLTVLHQDWLNGKEYKCKVSNKALPAPIEETISIAKGQPREPQVYTLPP | 43.4 | no binding | –
